Results on 18 sequences are retold here after the DeepSol protein solubility set.

This data set is described as follows: soluble on expression in E. coli; label from the status in PepcDB or PDB records.
On to “MSQPLTTNSVLVEEAAADGDSSAAAPPLFDYHRIDQKLLQNIVYDALVWSTLNCLLVGDKSVQRSGRVPGVGLVHLPLSLLPGPFPESHWKQGCELAPIFNELVDRVSLDGKFLQESLSRTKNADEFTSRLLDIHSKMLQINKKEDIRMGIVRSDYMIDEKTKSLLQIEMNTISTSFALIGCLMTGLHKSLLSQYGKFLGLNSNRVPANNAVDQSAEALAKAWSEYNNPRAAILVVVQVEERNMYEQHYISALLREKHHIRSIRKTLTEIDQEGKILPDGTLSVDGQAISVVYFRAGYTPKDYPSESEWRARLLMEQSSAIKCPTISYHLVGTKKIQQELAKPGVLERFVENKDHIAKLRACFAGLWSLEDSDIVKKAIENPELFVMKPQREGGGNNIYGDELRETLLKLQEAGSQEDAAYILMQRIFPATSPAILVRDGNWDTGHVISEAGIFGTYLRNKDKIIINNESGYMVRTKISSSYEGGVLPGFGVVDTVYLT”, for which the “soluble on expression in E. coli” value was “soluble”.

Take “MGSDKIHHHHHHMLEHKIDFMVTLEVKEANANGDPLNGNMPRTDAKGYGVMSDVSIKRKIRNRLQDMGKSIFVQANERIEDDFRSLEKRFSQHFTAKTPDKEIEEKANALWFDVRAFGQVFTYLKKSIGVRGPVSISMAKSLEPIVISSLQITRSTNGMEAKNNSGRSSDTMGTKHFVDYGVYVLKGSINAYFAEKTGFSQEDAEAIKEVLVSLFENDASSARPEGSMRVCEVFWFTHSSKLGNVSSARVFDLLEYHQSIEEKSTYDAYQIHLNQEKLAKYEAKGLTLEILEGL”: the “soluble on expression in E. coli” value is on record as “not soluble”.

For the sequence “SMFIKKIKAKANNNEINVIIEIPMNSGPIKYEFDKESGALFVDRFMQTTMSYPCNYGFIPDTLSNDGDPVDVLVVAHHPVVPGSVIKCRAIGVLMMEDESGLDEKIIAVPTSKLDITFDHIKELDDLCEMLKKRIVHFFEHYKDLEKGKWVKVTGWGDKVKAETLIKEGIDRN”, the “soluble on expression in E. coli” value is given as “soluble”.

Turning to “GSHMSLSNKLTLDKLDVKGKRVVMRVDFNVPMKNNQITNNQRIKAAVPSIKFCLDNGAKSVVLMSHLGRPDGVPMPDKYSLEPVAVELKSLLGKDVLFLKDCVGPEVEKACANPAAGSVILLENLRFHVEEEGKGKDASGNKVKAEPAKIEAFRASLSKLGDVYVNDAFGTAHRAHSSMVGVNLPQKAGGFLMKKELNYFAKALESPERPFLAILGGAKVADKIQLINNMLDKVNEMIIGGGMAFTFLKVLNNMEIGTSLFDEEGAKIVKDLMSKAEKNGVKITLPVDFVTADKFDENAKTGQATVASGIPAGWMGLDCGPESSKKYAEAVTRAKQIVWNGPVGVFEWEAFARGTKALMDEVVKATSRGCITIIGGGDTATCCAKWNTEDKVSHVSTGGGASLELLEGKVLPGVDALSNI”, the “soluble on expression in E. coli” value is “soluble”. The value for “RIEEVKERFVNLNRLFQELVGDFQAKSDQLVSVIQDMEKISENIMEELKKSGTNVDQIVERVKEASSQIGETLENIRSIEKLIQNIMRIARETNILALNATIEAARAGEAGKGFMIVANEVQNLSNETNEVTKQIVEKAREILESSQRSLENLEFMANLFETVGKTLQNMVRFMENIVKLLQEVRNSLDTSKESLSEKSAEIDSATKVLEETA” was “soluble”; that for “MSLKICNFRAHYSPTMLSYVIIFMVEKMNYIKINLKLNNPLAFWANFSESERFFWFDPQKETFVIGCERLKAIDLEHDKFSDYTYLFHSQTFFDDIKGELWENFGGETIAFKHYFVVNKENSYTLTCDSPREIPEITIPKFKHQLTEKASDFSAWQELFYAIQKNFADGKSRKIVASRELEFTSQTSFELESIIQNLLDNNPNAFIFAYQKGKRIFLGASPEILVQKENDQLLSYALAGTFPKTMENAGQKLLTDPKNLLEHDIVVQKIKRNLLEKAETVTVGTTELMELKNVYHLRTILSAKNSELSLIDWTKQLHPTPALGGEPRHEALEFLRKHENHERGLYAAPLGLIDSKGNGTMIVGIRSALIVDKKLYAYAGCGIIPSSDALEEFRETKVKLKTILEALEGHHHHHH” was “not soluble”.

Take “MSLIRCTDINEITPFSSFISKIPNHCGTHMDASRHFVKDGLSINELPIGYFCHKDVVLLEVPKGEAEGITKEDLEPYAAILAQVSFAFLCTGFEKYRTENPLIYQNEGPYIATSAGKYLSDNYPNLKGVGIWFPCTWFAVFSCTEGHHHHHH”: the “soluble on expression in E. coli” value is “not soluble”. The value for “MNTSEHEREHDHVIEVTDLRRVYGGDFEAVRGITFSVERGELFALLGTNGAGKTSTVELLEGLAAPSGGRVRVLGHDPYEERAAVRPRTGVMLQEGGFPSELTVAETVRMWAGCTSGARPVGEALSLVGLERRPDVRVKQLSGGERRRLDLALALLGRPEVLFLDEPTTGLDAEGRQETWELVRELRDGGTTVLLTTHYLEEAEGLADRLAILHEGRIATAGTPAEVTAAQPSRISFDLPDGYFLGDLPPLADLGVSTHETTGRTVRLRTHELQRTATALLLWAQRAQVELRGLDVRSASLEEAFLRIAREAAGDRPGRPGRTDVSGTTASGKEAVALEHHHHHH” was “soluble”; that for “MGSDKIHHHHHHMLTEQPNWLMQRAQLTPERIALIYEDQTVTFAELFAASKRMAEQLAAHSVRKGDTAAILLQNRAEMVYAVHACFLLGVKAVLLNTKLSTHERLFQLEDSGSGFLLTDSSFEKKEYEHIVQTIDVDELMKEAAEEIEIEAYMQMDATATLMYTSGTTGKPKGVQQTFGNHYFSAVSSALNLGITEQDRWLIALPLFHISGLSALFKSVIYGMTVVLHQRFSVSDVLHSINRHEVTMISAVQTMLASLLEETNRCPESIRCILLGGGPAPLPLLEECREKGFPVFQSYGMTETCSQIVTLSPEFSMEKLGSAGKPLFSCEIKIERDGQVCEPYEHGEIMVKGPNVMKSYFNRESANEASFQNGWLKTGDLGYLDNEGFLYVLDRRSDLIISGGENIYPAEVESVLLSHPAVAEAGVSGAEDKKWGKVPHAYLVLHKPVSAGELTDYCKERLAKYKIPAKFFVLDRLPRNASNKLLRNQLKDARKGELL” was “not soluble”.

On to “MGSDKIHHHHHHMHQYTNIKKAIQLSNSFWDVTTAAGMANIATRNLGNGRHEAVASGRQFTNMSSYSYLGLDSHPAILRAAADAVMNTGSLNTSISRIRVQFDILQQAEEALASLVDAETLTVPSCAAAAAATLPLLASGALTGDVAPLMVFDKNAHFCLNMMKPICADETEIQTIRHNDLNALEDLCKTHQRVAYVADGVYSTGGMAPVKELLALQDKYGLFLFFDEAHGLSTLGHLGRGLVLEEMGAINDRTLIVTSLNKGFGASGGAIFLGPRGDAERRKLATRFGGPVTWSQRINTAGLGAIIESVAVHKSAELPALQQKLQDNIRLFDQHVASENSGDRLPIRFVSIGSEERTILYAKSLLEDGYYTSPIFFPVIAKGRAGLRIMIRANMTTEEIERFGACLKQLRASHE”, for which the “soluble on expression in E. coli” value is “not soluble”. Take “MSLRMMNKRILKGTLTAIAALMSAHAFAGQEVTVYTAFETDLLAKYKSAFEKENPDIEIKWVRDSTGIMTAKLLAEKDNPRAEVVWGLAGSSMALLKDQGVLKPYTPKGANELRANLNDPQAQQAWYGNDAFFNAVCFNEAVAKQLNLPKPQSWEDLTNPVYKGHIAMPNPASSGTGYMQVSAWLQNMGEDKAWDYMQRLDQNIAHYTHSGSKPCVQAGMGEVAIGISMATRGAKLKTQGAPLDVIVPNGIGWESEAVGLVKESDAAKRVVDWSVSKAANELYIESYPIVGHQDVSKQVPNYPNVEKVMAKMDFTQMGVDRARVLQTWSEKFDAKSEPKEGHHHHHH”: the “soluble on expression in E. coli” value is listed as “soluble”.

In the case of “MVAFTVDQMRSLMDKVTNVRNMSVIAHVDHGKSTLTDSLVQRAGIISAAKAGEARFTDTRKDEQERGITIKSTAISLYSEMSDEDVKEIKQKTDGNSFLINLIDSPGHVDFSSEVTAALRVTDGALVVVDTIEGVCVQTETVLRQALGERIKPVVVINKVDRALLELQVSKEDLYQTFARTVESVNVIVSTYADEVLGDVQVYPARGTVAFGSGLHGWAFTIRQFATRYAKKFGVDKAKMMDRLWGDSFFNPKTKKWTNKDTDAEGKPLERAFNMFILDPIFRLFTAIMNFKKDEIPVLLEKLEIVLKGDEKDLEGKALLKVVMRKFLPAADALLEMIVLHLPSPVTAQAYRAEQLYEGPADDANCIAIKNCDPKADLMLYVSKMVPTSDKGRFYAFGRVFAGTVKSGQKVRIQGPNYVPGKKDDLFIKAIQRVVLMMGRFVEPIDDCPAGNIIGLVGIDQFLLKTGTLTTSETAHNMKVMKFSVSPVVQVAVEVKNANDLPKLVEGLKRLSKSDPCVLTYMSESGEHIVAGTGELHLEICLQDLEHDHAGVPLKISPPVVAYRETVESESSQTALSKSPNKHNRIYLKAEPIDEEVSLAIENGIINPRDDFKARARIMADDYGWDVTDARKIWCFGPDGNGPNLVIDQTKAVQYLHEIKDSVVAAFQWATKEGPIFGEEMRSVRVNILDVTLHADAIHRGGGQIIPTMRRATYAGFLLADPKIQEPVFLVEIQCPEQAVGGIYSVLNKKRGQVVSEEQRPGTPLFTVKAYLPVNESFGFTGELRQATGGQAFPQMVFDHWSTLGSDPLDPTSKAGEIVLAARKRHGMKEEVPGWQEYYDKL”, the “soluble on expression in E. coli” value is listed as “soluble”. With “MGSDKIHHHHHHMIVNLSRLGKSGTGMWQYSIKFLTALREIADVDAIICSKVHADYFEKLGYAVVTVPNIVSNTSKTSRLRPLVWYVYSYWLALRVLIKFGNKKLVCTTHHTIPLLRNQTITVHDIRPFYYPDSFIQKVYFRFLLKMSVKRCKHVLTVSYTVKDSIAKTYNVDSEKISVIYNSVNKSDFIQKKEKENYFLAVGASWPHKNIHSFIKNKKVWSDSYNLIIVCGRTDYAMSLQQMVVDLELKDKVTFLHEVSFNELKILYSKAYALVYPSIDEGFGIPPIEAMASNTPVIVSDIPVFHEVLTNGALYVNPDDEKSWQSAIKNIEQLPDAISRFNNYVARYDFDNMKQMVGNWLAESK” the entry was “not soluble”. In the case of “GMNAIRYTKRECKDEKKITEFLNKARTGFLGLSTNDQPYVIPLNFVWHNHAIYFHGASEGRKIKMIEANPEVCFTICEDLGTIVSPVPAHTDTAYMSVIIFGTIEPVSAIEEGTEAMQQMLDKYVPGYYHSPLAASHVEKYRSSLGSRTAIYKISCRERTAKVNEPIESLKFYPGRNVSVDKDSR”, the “soluble on expression in E. coli” value is given as “soluble”. The value for “MSLVNDITYGREAEVWPRDYSMLARRIQFLRFNDYPIKLVSSNGHSIIGYISKFNQKENMILASDEAKGNNRVEVKLESIASLEELLVGKDFTTRLIVGDVFNNQPCPPTKKDFFSICNKCFKQGIGIKVHMLDGRILTGKTTGVNACQVGIIKSNGNHMQIMFDWVSRITSSDYSGEGHHHHHH” was “soluble”. For “MGSDKIHHHHHHMTEAHNACCHPSGTAAGHHGAGKASTDMMDAVDRRLLDIIQTGFPIEPRPYAVLGETLGITECEALARVRALRERKVIRRLGANFDSWKLGFRSTLCAAKVPEDRIDAFVAEVNRHVNVTHNYLRNHEYNIWFTCICPSWEQVCSLLDGITERTGIPILNLPATKLYKIRVDFRMD”, the “soluble on expression in E. coli” value was “not soluble”. Regarding “MGSDKIHHHHHHVEYPLPAKNSNLVGENQYYVVPEGKLTLEAIATKFQLGLTNLLEANPGVDPFLPKPGSTLVIPHQLILPNAPREGIVINVAEMRLYYYPKGKNIVEVLPIGIGQIGKDTPEKWVTTVQRKRANPTWTPTPRIRKEYLAKGEVLPAVWPAGPDNPMGLFALYIGNLYAIHGTNATFGIGLRISQGCIRLRDADIEHLFNSVPEGTRVEFTNQPIKASEEPDGNRYLEVHQPLSRTMAEYESAEPVGLSMHRDIAKFVAHADTDSFVLKRLLEQRNGIPTRINQ”, the “soluble on expression in E. coli” value was “not soluble”. As for “LKASGVQAQMAKQQEQDPTNLYISNLPLSMDEQELENMLKPFGQVISTRILRDSSGTSRGVGFARMESTEKCEAVIGHFNGKFIKTPPGVSAPTEPLLCKF”, the “soluble on expression in E. coli” value is recorded as “soluble”.
